Five molecules from US20140206609A1 (Sanofi, published 2014) can be followed below.

Experiment in all cases: cell-based or functional assay
The target of assay [1] is T1, human GIP receptor (human, UniProt P48546 22-466).
T1 sequence (looked up): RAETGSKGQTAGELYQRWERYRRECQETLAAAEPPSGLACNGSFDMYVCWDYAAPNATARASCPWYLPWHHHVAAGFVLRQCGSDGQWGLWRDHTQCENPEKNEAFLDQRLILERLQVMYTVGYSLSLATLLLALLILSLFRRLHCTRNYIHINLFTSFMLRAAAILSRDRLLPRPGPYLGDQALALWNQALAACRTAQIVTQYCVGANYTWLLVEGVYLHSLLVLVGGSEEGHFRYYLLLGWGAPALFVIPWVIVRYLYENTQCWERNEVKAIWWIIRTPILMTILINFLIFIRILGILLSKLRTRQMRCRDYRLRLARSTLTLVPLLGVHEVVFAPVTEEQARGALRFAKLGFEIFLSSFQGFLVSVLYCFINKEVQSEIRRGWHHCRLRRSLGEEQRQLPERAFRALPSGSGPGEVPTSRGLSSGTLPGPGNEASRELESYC

Assay [2] has as its target human GLP-1 receptor (human, UniProt P43220 24-463).
For assay [3], the target named is human glucagon receptor (human, UniProt P47871 26-477).
Chain of human glucagon receptor (P47871 26-477): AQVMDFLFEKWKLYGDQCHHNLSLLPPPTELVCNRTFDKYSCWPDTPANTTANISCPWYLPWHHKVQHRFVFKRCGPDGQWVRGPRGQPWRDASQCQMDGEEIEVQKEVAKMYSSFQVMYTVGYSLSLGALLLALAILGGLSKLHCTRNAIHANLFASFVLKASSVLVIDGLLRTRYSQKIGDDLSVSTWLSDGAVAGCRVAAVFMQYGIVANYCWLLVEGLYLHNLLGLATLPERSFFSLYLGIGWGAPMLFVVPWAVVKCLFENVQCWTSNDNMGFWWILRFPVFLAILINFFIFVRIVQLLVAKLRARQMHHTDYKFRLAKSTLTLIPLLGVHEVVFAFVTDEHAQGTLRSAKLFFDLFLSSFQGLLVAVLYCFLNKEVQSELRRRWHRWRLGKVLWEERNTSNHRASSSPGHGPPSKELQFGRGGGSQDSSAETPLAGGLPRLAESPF

*1 amine or outer side, *2 acyl side, *3 side chain or, on linkers, in order; H or OH if unused. Where no end group is shown, it is not given here. Side-chain parts run from the residue outwards. [ ]: non-standard residue; d: D form. The star is where a group is joined. γGlu = O=C(O)[C@H](CCC(=O)[*:2])N[*:1]; Palmitoyl = CCCCCCCCCCCCCCCC(=O)*; Aib = CC(C)(N)C(=O)O

B1: SEQ ID NO: 33 (peptide)
peptide: Y[Aib]EGTFTSDLSIQK([γGlu-Palmitoyl])EKRAAQDFIEWLKAGGPSSGAPPPS-NH2
modifications: N-terminus assumed
SMILES: CCCCCCCCCCCCCCCC(=O)N[C@@H](CCC(=O)NCCCC[C@H](NC(=O)[C@H](CCC(N)=O)NC(=O)[C@@H](NC(=O)[C@H](CO)NC(=O)[C@H](CC(C)C)NC(=O)[C@H](CC(=O)O)NC(=O)[C@H](CO)NC(=O)[C@@H](NC(=O)[C@H](Cc1ccccc1)NC(=O)[C@@H](NC(=O)CNC(=O)[C@H](CCC(=O)O)NC(=O)C(C)(C)NC(=O)[C@@H](N)Cc1ccc(O)cc1)[C@@H](C)O)[C@@H](C)O)[C@@H](C)CC)C(=O)N[C@@H](CCC(=O)O)C(=O)N[C@@H](CCCCN)C(=O)N[C@@H](CCCNC(=N)N)C(=O)N[C@@H](C)C(=O)N[C@@H](C)C(=O)N[C@@H](CCC(N)=O)C(=O)N[C@@H](CC(=O)O)C(=O)N[C@@H](Cc1ccccc1)C(=O)N[C@H](C(=O)N[C@@H](CCC(=O)O)C(=O)N[C@@H](Cc1c[nH]c2ccccc12)C(=O)N[C@@H](CC(C)C)C(=O)N[C@@H](CCCCN)C(=O)N[C@@H](C)C(=O)NCC(=O)NCC(=O)N1CCC[C@H]1C(=O)N[C@@H](CO)C(=O)N[C@@H](CO)C(=O)NCC(=O)N[C@@H](C)C(=O)N1CCC[C@H]1C(=O)N1CCC[C@H]1C(=O)N1CCC[C@H]1C(=O)N[C@@H](CO)C(N)=O)[C@@H](C)CC)C(=O)O
Take B1: the “EC50 hGIP R [pM]” value in assay [1] amounted to 9.1 pM. For the same molecule, the “EC50 hGLP-1 R [pM]” value in assay [2] was 6.4 pM. Moreover, the “EC50 hGLUC R [pM]” value in assay [3] came out at 12900 pM.

B2: SEQ ID NO: 34 (peptide)
peptide: Y[Aib]EGTFTSDLSIQK([γGlu-Palmitoyl])EKRAAQEFIEWLKAGGPSSGAPPPS-NH2
modifications: N-terminus assumed
SMILES: CCCCCCCCCCCCCCCC(=O)N[C@@H](CCC(=O)NCCCC[C@H](NC(=O)[C@H](CCC(N)=O)NC(=O)[C@@H](NC(=O)[C@H](CO)NC(=O)[C@H](CC(C)C)NC(=O)[C@H](CC(=O)O)NC(=O)[C@H](CO)NC(=O)[C@@H](NC(=O)[C@H](Cc1ccccc1)NC(=O)[C@@H](NC(=O)CNC(=O)[C@H](CCC(=O)O)NC(=O)C(C)(C)NC(=O)[C@@H](N)Cc1ccc(O)cc1)[C@@H](C)O)[C@@H](C)O)[C@@H](C)CC)C(=O)N[C@@H](CCC(=O)O)C(=O)N[C@@H](CCCCN)C(=O)N[C@@H](CCCNC(=N)N)C(=O)N[C@@H](C)C(=O)N[C@@H](C)C(=O)N[C@@H](CCC(N)=O)C(=O)N[C@@H](CCC(=O)O)C(=O)N[C@@H](Cc1ccccc1)C(=O)N[C@H](C(=O)N[C@@H](CCC(=O)O)C(=O)N[C@@H](Cc1c[nH]c2ccccc12)C(=O)N[C@@H](CC(C)C)C(=O)N[C@@H](CCCCN)C(=O)N[C@@H](C)C(=O)NCC(=O)NCC(=O)N1CCC[C@H]1C(=O)N[C@@H](CO)C(=O)N[C@@H](CO)C(=O)NCC(=O)N[C@@H](C)C(=O)N1CCC[C@H]1C(=O)N1CCC[C@H]1C(=O)N1CCC[C@H]1C(=O)N[C@@H](CO)C(N)=O)[C@@H](C)CC)C(=O)O
For the molecule B2, the “EC50 hGIP R [pM]” value in assay [1] was 22.2 pM. In addition, the “EC50 hGLP-1 R [pM]” value in assay [2] was found to be 4.6 pM. The “EC50 hGLUC R [pM]” value in assay [3] stood at 11600 pM.

B3: SEQ ID NO: 31 (peptide)
peptide: Y[Aib]EGTFTSDLSIQK([γGlu-Palmitoyl])DKRAAQDFIEWLKAGGPSSGAPPPS-NH2
modifications: N-terminus assumed
SMILES: CCCCCCCCCCCCCCCC(=O)N[C@@H](CCC(=O)NCCCC[C@H](NC(=O)[C@H](CCC(N)=O)NC(=O)[C@@H](NC(=O)[C@H](CO)NC(=O)[C@H](CC(C)C)NC(=O)[C@H](CC(=O)O)NC(=O)[C@H](CO)NC(=O)[C@@H](NC(=O)[C@H](Cc1ccccc1)NC(=O)[C@@H](NC(=O)CNC(=O)[C@H](CCC(=O)O)NC(=O)C(C)(C)NC(=O)[C@@H](N)Cc1ccc(O)cc1)[C@@H](C)O)[C@@H](C)O)[C@@H](C)CC)C(=O)N[C@@H](CC(=O)O)C(=O)N[C@@H](CCCCN)C(=O)N[C@@H](CCCNC(=N)N)C(=O)N[C@@H](C)C(=O)N[C@@H](C)C(=O)N[C@@H](CCC(N)=O)C(=O)N[C@@H](CC(=O)O)C(=O)N[C@@H](Cc1ccccc1)C(=O)N[C@H](C(=O)N[C@@H](CCC(=O)O)C(=O)N[C@@H](Cc1c[nH]c2ccccc12)C(=O)N[C@@H](CC(C)C)C(=O)N[C@@H](CCCCN)C(=O)N[C@@H](C)C(=O)NCC(=O)NCC(=O)N1CCC[C@H]1C(=O)N[C@@H](CO)C(=O)N[C@@H](CO)C(=O)NCC(=O)N[C@@H](C)C(=O)N1CCC[C@H]1C(=O)N1CCC[C@H]1C(=O)N1CCC[C@H]1C(=O)N[C@@H](CO)C(N)=O)[C@@H](C)CC)C(=O)O
B3: the “EC50 hGIP R [pM]” value in assay [1] turned out to be 6.5 pM. Moreover, the “EC50 hGLP-1 R [pM]” value in assay [2] is 6 pM. For the same molecule, the “EC50 hGLUC R [pM]” value in assay [3] amounted to 3080 pM.

B4: SEQ ID NO: 35 (peptide)
peptide: Y[Aib]EGTFTSDLSIQK([γGlu-Palmitoyl])ESRAA[Aib]EFIEWLKAGGPSSGAPPPS-NH2
modifications: N-terminus assumed
SMILES: CCCCCCCCCCCCCCCC(=O)N[C@@H](CCC(=O)NCCCC[C@H](NC(=O)[C@H](CCC(N)=O)NC(=O)[C@@H](NC(=O)[C@H](CO)NC(=O)[C@H](CC(C)C)NC(=O)[C@H](CC(=O)O)NC(=O)[C@H](CO)NC(=O)[C@@H](NC(=O)[C@H](Cc1ccccc1)NC(=O)[C@@H](NC(=O)CNC(=O)[C@H](CCC(=O)O)NC(=O)C(C)(C)NC(=O)[C@@H](N)Cc1ccc(O)cc1)[C@@H](C)O)[C@@H](C)O)[C@@H](C)CC)C(=O)N[C@@H](CCC(=O)O)C(=O)N[C@@H](CO)C(=O)N[C@@H](CCCNC(=N)N)C(=O)N[C@@H](C)C(=O)N[C@@H](C)C(=O)NC(C)(C)C(=O)N[C@@H](CCC(=O)O)C(=O)N[C@@H](Cc1ccccc1)C(=O)N[C@H](C(=O)N[C@@H](CCC(=O)O)C(=O)N[C@@H](Cc1c[nH]c2ccccc12)C(=O)N[C@@H](CC(C)C)C(=O)N[C@@H](CCCCN)C(=O)N[C@@H](C)C(=O)NCC(=O)NCC(=O)N1CCC[C@H]1C(=O)N[C@@H](CO)C(=O)N[C@@H](CO)C(=O)NCC(=O)N[C@@H](C)C(=O)N1CCC[C@H]1C(=O)N1CCC[C@H]1C(=O)N1CCC[C@H]1C(=O)N[C@@H](CO)C(N)=O)[C@@H](C)CC)C(=O)O
B4: the “EC50 hGIP R [pM]” value in assay [1] worked out at 7.3 pM. The “EC50 hGLP-1 R [pM]” value in assay [2] is 6.9 pM. Further, in assay [3], the “EC50 hGLUC R [pM]” value is 39100 pM.

B5: SEQ ID NO: 36 (peptide)
peptide: Y[Aib]EGTFTSDLSIQK([γGlu-Palmitoyl])EKRAA[Aib]EFIEWLKAGGPSSGAPPPS-NH2
modifications: N-terminus assumed
SMILES: CCCCCCCCCCCCCCCC(=O)N[C@@H](CCC(=O)NCCCC[C@H](NC(=O)[C@H](CCC(N)=O)NC(=O)[C@@H](NC(=O)[C@H](CO)NC(=O)[C@H](CC(C)C)NC(=O)[C@H](CC(=O)O)NC(=O)[C@H](CO)NC(=O)[C@@H](NC(=O)[C@H](Cc1ccccc1)NC(=O)[C@@H](NC(=O)CNC(=O)[C@H](CCC(=O)O)NC(=O)C(C)(C)NC(=O)[C@@H](N)Cc1ccc(O)cc1)[C@@H](C)O)[C@@H](C)O)[C@@H](C)CC)C(=O)N[C@@H](CCC(=O)O)C(=O)N[C@@H](CCCCN)C(=O)N[C@@H](CCCNC(=N)N)C(=O)N[C@@H](C)C(=O)N[C@@H](C)C(=O)NC(C)(C)C(=O)N[C@@H](CCC(=O)O)C(=O)N[C@@H](Cc1ccccc1)C(=O)N[C@H](C(=O)N[C@@H](CCC(=O)O)C(=O)N[C@@H](Cc1c[nH]c2ccccc12)C(=O)N[C@@H](CC(C)C)C(=O)N[C@@H](CCCCN)C(=O)N[C@@H](C)C(=O)NCC(=O)NCC(=O)N1CCC[C@H]1C(=O)N[C@@H](CO)C(=O)N[C@@H](CO)C(=O)NCC(=O)N[C@@H](C)C(=O)N1CCC[C@H]1C(=O)N1CCC[C@H]1C(=O)N1CCC[C@H]1C(=O)N[C@@H](CO)C(N)=O)[C@@H](C)CC)C(=O)O
On to B5, for which the “EC50 hGIP R [pM]” value in assay [1] turned out to be 6.4 pM. For the same molecule, the “EC50 hGLP-1 R [pM]” value in assay [2] came out at 3.4 pM. Further, the “EC50 hGLUC R [pM]” value in assay [3] amounted to 5780 pM.
